Data: patent US20160377619A1 (published 2016)

Molecular target: lysyl-tRNA synthetase (KRS), recombinant (human, UniProt Q15046 1-597)
Experiment: SPR

lysyl-tRNA synthetase (KRS), recombinant, sequence (Q15046 whole entry): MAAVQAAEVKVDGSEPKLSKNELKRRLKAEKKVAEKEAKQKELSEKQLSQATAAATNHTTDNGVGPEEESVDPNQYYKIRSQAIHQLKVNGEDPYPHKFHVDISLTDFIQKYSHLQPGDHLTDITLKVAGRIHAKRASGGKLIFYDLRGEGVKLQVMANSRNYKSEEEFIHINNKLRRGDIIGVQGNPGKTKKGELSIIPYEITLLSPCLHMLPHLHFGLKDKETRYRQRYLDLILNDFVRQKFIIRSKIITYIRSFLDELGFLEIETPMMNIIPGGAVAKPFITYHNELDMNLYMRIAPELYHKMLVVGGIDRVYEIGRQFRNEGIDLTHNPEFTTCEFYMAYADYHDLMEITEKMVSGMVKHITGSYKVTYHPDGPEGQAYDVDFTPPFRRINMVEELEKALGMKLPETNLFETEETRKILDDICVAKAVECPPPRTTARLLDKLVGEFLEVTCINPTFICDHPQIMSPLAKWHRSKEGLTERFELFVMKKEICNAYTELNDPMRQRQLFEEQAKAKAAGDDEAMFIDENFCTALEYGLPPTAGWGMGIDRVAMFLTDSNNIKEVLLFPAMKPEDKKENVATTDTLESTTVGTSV

B1: anti-KRS scFv Biocon-K1 (scFv)
scFv: EVQLLESGGGLVQPGGSLRLSCAASGFTFSNYAMSWVRQAPGKGLEWVSGISPSSGDTYYADSVKGRFTISRDNSKNTLYLQMNSLRAEDTAVYYCAKGVWWYHPLLFDYWGQGTLVTVSSGGGGSGGGGSGGGGSQSVLTQPPSASGTPGQRVTISCSGSSSNIGNNTVSWYQQLPGTAPKLLIYANSKRPSGVPDRFSGSKSGTSASLAISGLRSEDEADYYCGAWDSSLSGYVFGGGTKLTVL
Kd: 110 nM
